This note sets out measurements from patent US20220332804A1 (CSL INNOVATION, published 2022).

What all share (test): SPR; KD relative to WT C2;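 further: biacore SPR at 37 °C, anti-C2 mAbs captured on an anti-human IgG chip, alanine or serine C2 surface mutants tested, KD from 1:1 fit compared with wild-type C2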
Background: In SPR one partner is held on a chip, and binding of the other changes the refractive index at the surface.

One test has as its target T1, human C2 S469A (human, UniProt P06681 21-752).
T1 sequence: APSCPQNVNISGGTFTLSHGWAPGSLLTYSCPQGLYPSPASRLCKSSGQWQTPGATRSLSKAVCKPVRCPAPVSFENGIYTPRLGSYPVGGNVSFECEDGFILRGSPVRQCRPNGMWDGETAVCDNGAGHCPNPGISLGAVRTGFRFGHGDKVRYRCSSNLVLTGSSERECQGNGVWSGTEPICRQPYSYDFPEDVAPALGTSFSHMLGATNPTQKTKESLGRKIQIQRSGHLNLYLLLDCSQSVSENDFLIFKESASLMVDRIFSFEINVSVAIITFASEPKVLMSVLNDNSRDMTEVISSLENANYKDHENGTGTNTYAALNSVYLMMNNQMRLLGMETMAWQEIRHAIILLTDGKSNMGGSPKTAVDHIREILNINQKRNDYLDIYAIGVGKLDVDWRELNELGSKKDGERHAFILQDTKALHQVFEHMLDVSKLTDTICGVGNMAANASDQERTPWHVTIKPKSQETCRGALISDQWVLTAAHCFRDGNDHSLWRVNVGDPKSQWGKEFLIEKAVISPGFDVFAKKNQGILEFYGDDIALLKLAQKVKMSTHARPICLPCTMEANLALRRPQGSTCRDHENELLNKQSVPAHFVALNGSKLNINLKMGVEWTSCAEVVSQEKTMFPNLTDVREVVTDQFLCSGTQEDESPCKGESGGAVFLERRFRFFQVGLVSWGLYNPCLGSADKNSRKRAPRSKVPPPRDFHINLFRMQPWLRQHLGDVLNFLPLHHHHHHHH

A further test concerns the target T2, human C2 D454A (human, UniProt P06681 21-752).
T2 sequence: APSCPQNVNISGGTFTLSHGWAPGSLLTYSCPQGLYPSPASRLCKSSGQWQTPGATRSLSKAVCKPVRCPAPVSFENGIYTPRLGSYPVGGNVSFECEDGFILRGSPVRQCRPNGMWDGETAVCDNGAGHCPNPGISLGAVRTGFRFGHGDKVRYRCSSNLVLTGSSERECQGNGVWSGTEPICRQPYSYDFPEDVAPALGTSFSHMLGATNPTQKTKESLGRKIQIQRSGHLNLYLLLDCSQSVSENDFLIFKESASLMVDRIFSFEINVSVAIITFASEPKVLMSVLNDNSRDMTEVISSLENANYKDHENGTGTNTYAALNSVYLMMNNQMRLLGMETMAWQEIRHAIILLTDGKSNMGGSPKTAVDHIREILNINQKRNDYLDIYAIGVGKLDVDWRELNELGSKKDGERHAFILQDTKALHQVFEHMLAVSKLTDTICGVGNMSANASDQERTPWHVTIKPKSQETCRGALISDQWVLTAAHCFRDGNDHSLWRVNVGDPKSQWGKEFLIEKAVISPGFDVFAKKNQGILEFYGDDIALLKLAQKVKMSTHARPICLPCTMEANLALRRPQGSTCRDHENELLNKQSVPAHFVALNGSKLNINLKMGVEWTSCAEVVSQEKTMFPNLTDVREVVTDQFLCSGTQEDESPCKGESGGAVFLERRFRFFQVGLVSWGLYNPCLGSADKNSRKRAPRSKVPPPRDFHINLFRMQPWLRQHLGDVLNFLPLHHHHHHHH

The next test concerns the target T3, human C2 K457A (human, UniProt P06681 21-752).
T3 sequence: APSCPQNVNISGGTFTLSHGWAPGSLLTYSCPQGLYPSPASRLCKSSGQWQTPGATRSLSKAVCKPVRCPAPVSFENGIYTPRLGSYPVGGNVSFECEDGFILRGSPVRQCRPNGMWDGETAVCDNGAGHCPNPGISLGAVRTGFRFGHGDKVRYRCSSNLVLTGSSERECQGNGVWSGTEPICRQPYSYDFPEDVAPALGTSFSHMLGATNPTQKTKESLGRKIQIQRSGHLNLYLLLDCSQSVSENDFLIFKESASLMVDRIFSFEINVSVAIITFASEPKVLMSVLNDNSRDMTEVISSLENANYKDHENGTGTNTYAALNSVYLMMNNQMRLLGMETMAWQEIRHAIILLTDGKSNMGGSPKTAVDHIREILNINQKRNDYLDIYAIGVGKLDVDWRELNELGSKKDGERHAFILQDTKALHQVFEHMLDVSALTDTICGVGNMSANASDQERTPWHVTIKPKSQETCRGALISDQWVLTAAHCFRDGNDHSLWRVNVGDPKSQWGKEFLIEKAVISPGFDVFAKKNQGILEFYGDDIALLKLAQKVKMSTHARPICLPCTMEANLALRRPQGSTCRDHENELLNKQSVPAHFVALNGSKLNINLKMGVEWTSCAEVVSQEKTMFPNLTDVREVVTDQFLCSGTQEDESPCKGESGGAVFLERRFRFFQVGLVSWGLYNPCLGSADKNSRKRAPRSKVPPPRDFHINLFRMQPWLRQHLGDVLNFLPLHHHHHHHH

For a further test, the target named is T4, human C2 R519A (human, UniProt P06681 21-752).
T4 sequence: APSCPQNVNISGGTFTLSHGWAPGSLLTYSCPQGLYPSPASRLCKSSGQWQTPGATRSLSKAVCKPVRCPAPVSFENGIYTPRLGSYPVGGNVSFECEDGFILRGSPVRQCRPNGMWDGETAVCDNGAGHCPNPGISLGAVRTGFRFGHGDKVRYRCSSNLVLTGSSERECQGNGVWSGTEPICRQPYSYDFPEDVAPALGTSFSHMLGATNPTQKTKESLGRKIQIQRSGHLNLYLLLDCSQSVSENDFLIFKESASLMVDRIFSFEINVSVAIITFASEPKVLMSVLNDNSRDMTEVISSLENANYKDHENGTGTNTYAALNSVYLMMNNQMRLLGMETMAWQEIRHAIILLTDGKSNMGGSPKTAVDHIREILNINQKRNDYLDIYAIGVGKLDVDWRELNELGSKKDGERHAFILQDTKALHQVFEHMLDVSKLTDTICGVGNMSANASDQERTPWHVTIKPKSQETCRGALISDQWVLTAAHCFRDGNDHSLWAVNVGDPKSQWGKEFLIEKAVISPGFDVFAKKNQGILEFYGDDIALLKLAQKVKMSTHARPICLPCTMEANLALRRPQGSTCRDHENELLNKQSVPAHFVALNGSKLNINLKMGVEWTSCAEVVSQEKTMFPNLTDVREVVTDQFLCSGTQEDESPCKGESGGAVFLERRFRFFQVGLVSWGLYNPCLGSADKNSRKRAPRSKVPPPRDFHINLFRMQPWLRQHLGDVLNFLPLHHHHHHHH

B1: RF16-214 (antibody, V domains shown)
VH: EVQLLESGGGLVQPGGSLRLSCAASGFTFSWYQMMWVRQAPGKGLEWVSRIYPSGGGTAYADSVKGRFTISRDNSKNTLYLQMNSLRAEDTAVYYCARDAGYGDNWGQGTLVTVSS
VL: QSALTQPPSVSVSPGQTASITCSGDKLGEKYASWYQQKAGQSPVMVIYQDRKRPSGIPERFSGSNSGNTATLTISGTQAMDEADYYCQAWDTRAVVFGGGTKLTVLG
In the case of B1, the Fold diff with human C2 S469A came out at 3 fold; with human C2 D454A it was 4 fold; in the test with human C2 K457A it was 1 fold; in the test with human C2 R519A it was 1 fold.
